The target in assay [1] is T1, CA6, tumor-associated MUC1-sialoglycotope (human, UniProt P15941 24-1255, carries the CA6 sialoglycotope (sialylated glycan epitope); sites not stated). Nature of the assay: flow cytometry (FACS) on WISH cells (CA6+). In general terms: Flow cytometry measures light scatter and fluorescence of single cells or particles in a stream.
Assay [2] deals with T1, CA6, tumor-associated …. Description: method not given; presumably flow cytometry on WISH (CA6+) cells as for the B-Fabs.
Assay [3] addresses T1, CA6, tumor-associated …. Description: flow cytometry (FACS) on WISH cells (CA6+). The source holds these as a separate data set.
In assay [4] the target is T1, CA6, tumor-associated …. Description: flow cytometry (FACS) on WISH cells (CA6+). This is another data set of the same source.

Like-named read-outs stand apart in the source and are kept apart here.

T1 sequence (P15941 24-1097, chain 1 of 2): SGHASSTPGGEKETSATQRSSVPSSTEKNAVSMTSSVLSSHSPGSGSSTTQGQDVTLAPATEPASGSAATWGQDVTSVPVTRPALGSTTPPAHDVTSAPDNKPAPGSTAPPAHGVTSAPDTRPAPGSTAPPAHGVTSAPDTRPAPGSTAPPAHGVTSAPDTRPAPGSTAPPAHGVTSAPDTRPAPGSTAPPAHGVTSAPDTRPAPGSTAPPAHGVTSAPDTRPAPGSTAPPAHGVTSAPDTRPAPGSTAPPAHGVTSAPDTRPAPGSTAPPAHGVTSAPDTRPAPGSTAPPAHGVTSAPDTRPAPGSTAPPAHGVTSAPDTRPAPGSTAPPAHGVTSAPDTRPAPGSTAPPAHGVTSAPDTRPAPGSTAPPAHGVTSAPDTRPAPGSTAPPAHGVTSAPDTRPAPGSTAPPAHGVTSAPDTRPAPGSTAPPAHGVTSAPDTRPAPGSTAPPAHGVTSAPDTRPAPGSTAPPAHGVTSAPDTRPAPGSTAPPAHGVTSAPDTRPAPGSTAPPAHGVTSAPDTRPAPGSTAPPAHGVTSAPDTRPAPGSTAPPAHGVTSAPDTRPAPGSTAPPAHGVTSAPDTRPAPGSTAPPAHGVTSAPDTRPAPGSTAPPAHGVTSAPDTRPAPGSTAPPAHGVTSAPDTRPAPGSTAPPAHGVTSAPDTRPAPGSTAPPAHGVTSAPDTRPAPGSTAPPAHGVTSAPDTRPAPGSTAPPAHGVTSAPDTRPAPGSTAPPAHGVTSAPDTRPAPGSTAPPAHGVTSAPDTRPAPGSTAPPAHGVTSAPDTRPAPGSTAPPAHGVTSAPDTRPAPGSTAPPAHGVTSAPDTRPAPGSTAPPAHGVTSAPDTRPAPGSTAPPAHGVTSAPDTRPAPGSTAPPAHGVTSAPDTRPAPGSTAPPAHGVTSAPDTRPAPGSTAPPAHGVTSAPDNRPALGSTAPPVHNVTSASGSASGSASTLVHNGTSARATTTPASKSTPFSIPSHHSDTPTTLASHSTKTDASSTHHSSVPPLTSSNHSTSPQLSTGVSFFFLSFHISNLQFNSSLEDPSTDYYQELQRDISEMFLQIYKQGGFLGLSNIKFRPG
T1 sequence (P15941 1098-1255, chain 2 of 2): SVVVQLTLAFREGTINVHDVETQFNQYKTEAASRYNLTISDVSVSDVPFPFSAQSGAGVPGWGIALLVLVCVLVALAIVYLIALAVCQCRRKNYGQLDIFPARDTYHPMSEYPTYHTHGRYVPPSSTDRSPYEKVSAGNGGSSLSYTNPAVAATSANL

B1: Control DS6 monoclonal antibody (antibody, V domains shown)
VH: EAQLVQSGAEVVKPGASVKMSCKASGYTFTSYNMHWVKQTPGQGLEWIGYIYPGNGATNYNQKFQGKATLTADPSSSTAYMQISSLTSEDSAVYFCARGDSVPFAYWGQGTLVTVSA
VL: EIVLTQSPATMSASPGERVTITCSAHSSVSFMHWFQQKPGTSPKLWIYSTSSLASGVPARFGGSGSGTSYSLTISSMEAEDAATYYCQQRSSFPLTFGAGTKLELK
What is called EC50 (read off the curve) is the concentration needed to bring the measured effect to its halfway point. A higher EC50 (read off the curve) goes with a less potent agent. Usually Kd stands for the concentration at which binding is half-saturated. Low values mean a tighter complex, high ones a looser complex. Consider B1, for which the concentration giving a half-maximal response (EC50 (read off the curve)) in assay [1], in assay [3] and in assay [4] was around 2 nM each time. This molecule also gave a Kd in assay [2] of 2 nM.

These data come from patent US20140256916A1 (Sanofi, published 2014).
